Key:
Trypsin = test: enzyme inhibition, Z-L-Lys-SBzl substrate, tight-binding fit
[1] = target: MASP-2 CCP1-CCP2-SP (human), O00187; test: as above
Thrombin = test: enzyme inhibition, Z-Gly-Pro-Arg-pNa substrate, tight-binding fit

Chain of MASP-2 CCP1-CCP2-SP (human), O00187 (O00187 298-686 limits assumed): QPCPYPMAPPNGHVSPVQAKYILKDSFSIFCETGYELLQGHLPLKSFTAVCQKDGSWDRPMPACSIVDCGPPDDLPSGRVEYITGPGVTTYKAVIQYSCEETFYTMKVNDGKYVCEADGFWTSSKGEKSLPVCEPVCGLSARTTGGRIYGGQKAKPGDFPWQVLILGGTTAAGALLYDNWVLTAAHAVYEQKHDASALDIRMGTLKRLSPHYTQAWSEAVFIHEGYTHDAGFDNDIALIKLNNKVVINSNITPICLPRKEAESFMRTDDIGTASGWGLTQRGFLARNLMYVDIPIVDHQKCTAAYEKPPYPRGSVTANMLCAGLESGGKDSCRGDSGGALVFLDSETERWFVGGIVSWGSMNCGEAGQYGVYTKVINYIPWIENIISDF
Chain of Trypsin (P00760 24-246): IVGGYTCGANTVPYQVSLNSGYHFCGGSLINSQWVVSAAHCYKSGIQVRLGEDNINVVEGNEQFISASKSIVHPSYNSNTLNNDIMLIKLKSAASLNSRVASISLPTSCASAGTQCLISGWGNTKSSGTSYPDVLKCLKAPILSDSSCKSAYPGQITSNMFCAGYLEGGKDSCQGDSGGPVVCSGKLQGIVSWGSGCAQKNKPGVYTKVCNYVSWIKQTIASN

| Ki (Trypsin) [µM] | Ki [1] [µM] | Ki (Thrombin) [µM] | Binder |
| --- | --- | --- | --- |
| 1 | 0.18 | 550 | GYCSRSYPPVCIPD (modifications not checked) [M2-6E] |
| – | – | 140 | GRCTKSIPPICFPD (modifications not checked) [wild-type SFTI (Sun Flower Trypsin Inhibitor)] |

Reference: patent publication US20120214748A1, “NOVEL PEPTIDES, PROCESS FOR PREPARATION THEREOF, AND USE THEREOF” (priority 2009, published 2012)
